Results published in patent publication US20260258115A1 (MAPP BIOPHARMACEUTICAL, published 2026).

B1: ADI-41270 (antibody, V domains shown)
VH: EVQLVESGGGVVQPGQSLRLSCAASGFTFSSFAMHWVRQAPGKGLEWVAVISYDGSNKYYADSVKGRFTISRDNSKNTLSLQVNSLRAEDTAVYYCARVSAEGSMGRFSDFNYWGLGTLVTVSS
VL: QSALTQPASVSGSPGQSITISCTGTSSDVGSYNLVSWYQQHPGKAPKLMIYEVRKRPSGVSNRFSGSKSGNTASLTISGLQAEDEADYYCCSYAGSDTYVFGTGTKLTVL
B2: ADI-41274 (antibody, V domains shown)
VH: EVQLVESGGGLVKPGGSLRLSCAASGFSFSSYAMNWVRQAPGKGLQWVSSISAGSSYIDYADSVKGRFTISRDNAENSLFLQMNSLRVEDTAVYYCARVGSYTHGYEFDYWGQGTLVTVSS
VL: QPVLTQPPSVSGAPGQRVTISCTGSNSNIGAGYDVHWYQQLPGTAPKLLIYASTIRPSGVPDRFSGSKSGTSASLAITGLQAEDEADYYCQSYDRNLSVVFGGGTKVTVL
B3: ADI-41280 (antibody, V domains shown)
VH: QVQLVESGPGLVKPSETLALTCTVSGGSLSTYYWSWIRQPPGKGLEWIGYIYYSGTTYYNPSLKSRVTISEDRSKNQFSLKLTSVTAADTAVYYCARHGPKTEFWSAQYYLELWGRGTLVTVSS
VL: EIVLTQSPGTLSLSPGERATLSCRASQSVSSDYLAWYQQKPGQAPSLLIYGVSTRATGIPDRISGSGSGTDFTLTISRLEPEDFAVYYCHQYGTSPWTFGQGTKVEIK
B4: ADI-41265 (antibody, V domains shown)
VH: EVQLVQSGAEVKKPGESLTISCKDSGYSFTSYWIGWVRQVPGKGLEWMGIVYPGDSRYSPSFQGHVTMSADKSINTAYLQWSTLKASDTAMYYCAKVVTYGSAIRWFESWGQGTLVTVSS
VL: QSVLTQPPSVSAAPGQKVSISCSGSSSNIGNNFVSWYQQVPGTAPKLLIIDNNKRPSGIPDRFSGSKSGTSATLGITGLQTGDEADYYCGTWDSRLSAEVFGGGTKLTVL
B5: ADI-41264 (antibody, V domains shown)
VH: EVQLVESGGGLVKPGGSLRLSCAASGFTFSNTWMSWVRQAPGKGLEWVGHIKSKTDGGTTDYAAPVKGRFTISRDDSKSILNLHLNSLKTEDSAVYYCAALPPISGWYYTPGFWGQGTLVTVSS
VL: SYELTQPPSMSVSPGQTARITCFGDAVPKKYVYWYQQKSGQAPVMVIYDDRRRPSGIPERFSGSSSGARATLTISGAQVEDEADYYCYSTDGSGNPSFGGGTKLTVL
B6: ADI-41277 (antibody, V domains shown)
VH: QVQLQESGPGLVKPSGTLSLTCAVSGGSITGRNWWSWVRQPPGKELERIGEIYHGGSTEYNPSLKGRVTISVDKSKNQFSLRLNSVTAADTAVYYCARVAHYDSNGYYIGYFDLWGRGTLVTVSS
VL: EIVLTQSPPSLSASVGDRVTITCRASQSISIYLNWYQQKPGKAPKLLIFAASSLQSGVPLRFSGSGSGTDFTLTISSLQPEDFATYYCHQSYSAPWTFGQGTKVDIK
B7: ADI-41282 (antibody, V domains shown)
VH: QVQLVQSGGGVVQPGRSLRLSCAASGFMFTIYSMHWVRQAPGKGLEWVAVISNDGVNKYYSDSVKGRFTISRDNSKNTLYLQMNNLRAEDTAVYYCASDIVVLVTATDYWGQGTLVTVSS
VL: ETTLTQSPVTLSLSPGERATLSCRTSQSFSSPLLAWYQQKPGQAPRLLIYGASNRATGIPDRFSGSGSGTDFTLTISRLEPVDFAVYYCQQYGSSPYTFGQGTKLEIK
B8: ADI-41263 (antibody, V domains shown)
VH: QVQLVQSGAEVKKPGASVKVYCKASGYTFTSHYIHWVRQAPGQGLEWMGRMNPSGGSPMYAQKFQERVTMTRDTSTSTAYMELRSLRSEDTAVYYCAMAKFYSFDYWGQGTLVTVSS
VL: QSVLTQPHSVSESPGKTVTISCTRSSGSIASYFVHWYQQRPGSAPTIVIYEDNQRPSGVPDRFSGSIDSSSNSASLTISGLKTEDEADYYCQSYDSSNWVFGGGTKLTVL
B9: ADI-41268 (antibody, V domains shown)
VH: EVQLVESGGGLVKPGGSLRLSCVASGFGFTSYSMNWVRQAPGKGLEWVSSISASSTYIHYADSVKGRFTISRDNARNSLYLQMISLRADDTAVYYCSRDGPTYGSGVHVWGQGTMVTVSS
VL: QSALIQPVSVSGSPGQSITISCTGTRSDVGGYNYVSWYQQHPGKAPKLMIYEVRNRPSGVSDRFSGSKSGNTASLTISGLQAEDEGDYYCSSYTSSDTLFYVFGSGTKLTVL
B10: ADI-41257 (antibody, V domains shown)
VH: QVQLVESGAEVKKPGSSVKVSCKASEGTFSSYGISWVRQAPGQGPEWMGEINPMFGTAKYAQKFQGRVTITVDESTSTADMELSSLTSEDTAVYYCAREFLGQCSETNCPTPSRHLDYWGQGTLVTVSS
VL: EIVMTQSPSSLSASVGDRVTITCRASRTISSYLNWYQQKPGKAPKLLIYATSNLQSGVPSRFSGSGSGADFTLTISSLQPEDFATYYCQQTYSTPGFGPGTKVDIK
B11: ADI-41261 (antibody, V domains shown)
VH: QVQLVQSGAEVKKPGSSVKVSCKASGGTFSSYGISWVRQAPGQGLEWMGGIIPMFGAANYAQKFQGRVTITAETSTSTAFMELSSLRSDDTAVYYCARIRWVPNWGGTATSFYNGMDVWGQGTTVTVSS
VL: EIVMTQSPGTLSLSPGERATLSCRASQSVSSSYLAWYQQKPGQAPRLLIYGASSRATGIPDRFSGSGSGTDFTLTISRLEPEDFAVYYCQHYGSSLFTFGPGTKVDIK
B12: ADI-41279 (antibody, V domains shown)
VH: QVQLVQSGAEVKKAGETLKISCRGPAHTFTSFWIGWVRQTPGKGLEWMGNIYPGDTDTTYSPSFRGQVTISADKSISTAYLQWNSLKASDTAIYYCATRVRHGYSSSGSFESWGQGTMVTVSS
VL: QSVVTQPPSVSGAPGQRITISCTGSNSNTGAGYDVHWYQQLPGAAPKLLIFANNNRPSGVPDRFSGSKSGTSASLAITGLQAEDEADYYCQSYDNSLSAYVFGTGTKLTVL
B13: ADI-41259 (antibody, V domains shown)
VH: QVQLVESGGRLVKPGGSLRLSCAASGFTFSDFYMSWIRQAPGKGLEWVSYISSSGDDPNYADSVKGRFTISRDNSKNSLYLQMNSLRAEDTAVYYCARDEVGWNNLDYYFGMDVWGQGTTVTVSS
VL: DIVMTQSPLSLPVTLGQPASISCRSSQSLVHSDGNTYLSWFHQRPGQSPRRLIYKVSNRDSGVPNRFSGGGSGTDFTLKISRVEAEDVGFFYCMQGTHWQKTFGQGTKVEIK
B14: ADI-41266 (antibody, V domains shown)
VH: QVQLQQSGPGLVKPSQTLSLTCAISGDSVSSNSAAWNWIRQSPSRGLEWLGRTYYRSKWYNDYAVSVKSRITINPDTSKNQFSLQLNSVTPEDTAVYYCARDLPQVDYFDGASFYFFDFWGQGTLVTVSS
VL: QPVLTQPPSVSVAPGQTASITCGGNIIGNKGVHWYQQKPGRAPVLVVYDDSDRPSGIPERFSGSNSGNTATLTISRVEAADEADYYCQVWDTGSHPVVFGGGTKVTVL
B15: ADI-41278 (antibody, V domains shown)
VH: EVQLVESGPALVKPTQTLTLTCTFSGFSLSTKRMGVSWIRQPPGKALEWLARIDWDDDKFYSTSLKTRLTISKDTSKNQVVLTLANMDPVDTATYFCARTTVYASGGYYLYYLDYWGQGTLVTVSS
VL: DIVMTQTPSSLSASVGDRVTLTCRASQRIASYVNWYHQKPGKAPNLLIYAASNLQSGVPSRFSGSGSGTDFTLTISSLQPEDFATYYCQQSYSTPLTFGQGTKLEIK
B16: ADI-41258 (antibody, V domains shown)
VH: QVQLVQSGGGLVQRGGSLRLSCAASGFSFRSYAMSWVRQAPGKGLEWVSSISDSGDNTFYADSVKGRFSISRDNSRDTLYLQMNSLRAEDTAVYYCARGGYCSGGNCFPFDYWGQGTLVTVSS
VL: SYELMQLPSVSVSPGQTARITCSGDALPKQYGYWYQQKPGQAPVLVIYKDSERPSGIPERFSGSSSGTTVTLTISGVQAEDEADYYCQSADSGGTYVMFGGGTKLTVL
B17: ADI-41273 (antibody, V domains shown)
VH: EVQLLESGGDLVRPGGSLRLSCTASGFSFSSSEMNWVRQAPGKGLEWVASINSGGDDIYYADSVKGRFTISRDNAKNSLSLQMDSLRAEDTALYYCARSRSGYSSGWSRFFGNWGQGTLVTVSS
VL: QSALTQPRSVSGSPGQSVTISCTGTISDIGAYNYVSWYQQHPGKAPKVMIYDVSKRPSGVPDRFSGSKSGFTASLTISGLQAEDEADYYCCSYAGRWVFGGGTKLTVL
B18: ADI-41275 (antibody, V domains shown)
VH: EVQLVESGGGLVKPGGSLRLSCAASGFMFSTYSMNWVRQAPGKGLEWVSFITGSSSDKYYAHSVKGRFTISRDNAKRTLYLQLNSLRAEDTAVYYCARFRGLYCDGDCSSRGNTYYNYYGMDVWGQGTTVTVSS
VL: EIVMTQSPLSLSVIPGEPASISCRSSKSLLHSNGYTYLDWYLQKPGQSPQLLIHLGSNRASGVPDRFSGSGSGTDFTLKISRVEAEDVGVFYCMQALQAPPTFGPGTKVEIK
B19: ADI-41271 (antibody, V domains shown)
VH: QVQLQESGPGLVKPSQTLSLTCAISGDSVSSNNAAWNWIRQSPSRGLEWLGRTYYRSKWYNDYAVSVKSRITINPDTSKNQLSLQLNSVTPEDTAVYYCARAGVRQWLVRGMDAFDIWGQGTMVTVSS
VL: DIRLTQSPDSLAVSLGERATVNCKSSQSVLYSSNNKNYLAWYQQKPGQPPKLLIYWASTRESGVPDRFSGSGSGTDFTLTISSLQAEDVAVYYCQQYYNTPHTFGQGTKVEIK
B20: ADI-41281 (antibody, V domains shown)
VH: QVQLVQSGAEVKKPGASVKVSCKASGYSFTNHGIHWVRQAPGQRLEWMGWINVANGFTAYSQNLQGRVTFTRDTSASTAYLELTSLRSEDTAVYHCARDESYCSAGYCYLYFDYWGQGTTVTVSS
VL: DIQVTQSPSSLSASVGDRVTITCRASQNIITYVNWYQQKPGKAPELLIFGASSVQSGVPSRFSGSGSGTDFTLTISSLRPDDFATYYCQQSYSNPRTFGGGTKVEIK
B21: ADI-41276 (antibody, V domains shown)
VH: EVQLVESGGGLVQPGRSLRLSCRASGFTFRNYAMSWVRQAPGKGLEWVGFIRGKGYGGTTEYAASVKGRFTISSDDSRSIAYLQMNSLKTEDTAVYYCTRVREDGVIAVAEYYFDYWGQGTLVTVSS
VL: not shown
B22: ADI-41267 (antibody, V domains shown)
VH: QVQLVQSGPGLVKPSGTLSLTCAVSGGSISTTHWWSWVRQPPGKGLEWIGEIYHSGSTNYNPSLKSRVTISVDKSRSQFSLKLTSVTAADTAVYYCARGDPLCSGGICYSGYFDYWGQGTLVTVSS
VL: SYVLTQPPSVSVSPGQTATITCSGDKLGDQYACWYQQKSGQSPVLVIYRDNKRPSGIPERFSGSNSGNTATLTISETQAMDEADYYCQAWGSSSVVFGGGTKVTVL

Biological target: RSV F on RSV-A2 virus (Respiratory syncytial virus (RSV-A2))
Assay: cell-based or functional assay

Binder | Neutralization IC50 (RSV subtype A)
B1 | > 25 µg/mL
B2 | 0.109 µg/mL
B3 | > 25 µg/mL
B4 | > 25 µg/mL
B5 | > 25 µg/mL
B6 | > 25 µg/mL
B7 | > 25 µg/mL
B8 | > 25 µg/mL
B9 | 0.177 µg/mL
B10 | > 25 µg/mL
B11 | > 25 µg/mL
B12 | > 25 µg/mL
B13 | 0.02 µg/mL
B14 | > 25 µg/mL
B15 | > 25 µg/mL
B16 | > 25 µg/mL
B17 | > 25 µg/mL
B18 | > 25 µg/mL
B19 | > 25 µg/mL
B20 | > 25 µg/mL
B21 | > 25 µg/mL
B22 | > 25 µg/mL
